# Data from patent US20230399394A1 (SUNSHINE GUOJIAN PHARMACEUTICAL SHANGHAI, published 2023).
# Where a chain is given by its changes, count along the chain named.
# T1: IL-33 mutant protein D65A (human, UniProt O95760 112-270)
# T1 construct: Prokaryotic expression
# T1 chain: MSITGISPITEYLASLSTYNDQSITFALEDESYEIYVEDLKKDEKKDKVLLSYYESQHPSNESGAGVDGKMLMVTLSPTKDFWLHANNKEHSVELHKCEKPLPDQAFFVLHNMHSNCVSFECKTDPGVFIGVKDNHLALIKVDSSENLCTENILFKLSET
# T2: IL-33 mutant protein K46A (human, UniProt O95760 112-270)
# T2 construct: Prokaryotic expression
# T2 chain: T1 chain with K46A, A65D
# T3: Human IL-33-his (human, UniProt O95760 112-270, biotinylated with EZ-Link NHS-Biotin where used as IL-33-his-biotin)
# T3 construct: Used plain (SPR, cell assays) and biotinylated (ELISA); also called IL-33-his-biotin
# T3 sequence: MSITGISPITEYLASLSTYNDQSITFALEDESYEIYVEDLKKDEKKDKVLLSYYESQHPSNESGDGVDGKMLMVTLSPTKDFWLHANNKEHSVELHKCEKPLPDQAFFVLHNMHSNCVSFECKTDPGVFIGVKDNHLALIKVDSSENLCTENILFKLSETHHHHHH
# T4: Pep1 (human, N-terminal biotin)
# T4 construct: Synthetic 20-mer of human IL-33
# T4 peptide: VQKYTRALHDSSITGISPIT
# T5: Pep4 (human, N-terminal biotin)
# T5 construct: Synthetic 20-mer of human IL-33
# T5 peptide: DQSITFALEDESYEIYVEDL
# T6: Pep11 (human, N-terminal biotin)
# T6 construct: Synthetic 20-mer of human IL-33
# T6 peptide: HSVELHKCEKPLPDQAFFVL
# B1: 874F7-Hu1 (antibody, human IgG4 S228P, kappa)
# heavy: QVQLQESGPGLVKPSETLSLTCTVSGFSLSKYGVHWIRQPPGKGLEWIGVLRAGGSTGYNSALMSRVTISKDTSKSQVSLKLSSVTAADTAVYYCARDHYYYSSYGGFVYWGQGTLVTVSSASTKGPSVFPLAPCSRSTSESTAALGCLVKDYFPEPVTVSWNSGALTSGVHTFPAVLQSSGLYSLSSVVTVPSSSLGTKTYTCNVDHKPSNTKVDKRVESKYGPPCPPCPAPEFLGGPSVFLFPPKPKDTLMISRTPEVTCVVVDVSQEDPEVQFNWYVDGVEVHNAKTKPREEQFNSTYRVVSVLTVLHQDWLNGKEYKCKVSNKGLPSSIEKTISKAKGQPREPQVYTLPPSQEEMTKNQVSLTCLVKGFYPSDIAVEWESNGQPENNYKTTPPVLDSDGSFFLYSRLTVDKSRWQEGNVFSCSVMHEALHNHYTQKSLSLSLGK
# light: DIQMTQSPSSVSASVGDRVTITCLASQTIGAWLAWYQQKPGKSPKLLIYAATRLADGVPSRFSGSGSGTDFTLTISSLQPEDFATYYCQQLDSSPYTFGQGTKVEIKRTVAAPSVFIFPPSDEQLKSGTASVVCLLNNFYPREAKVQWKVDNALQSGNSQESVTEQDSKDSTYSLSSTLTLSKADYEKHKVYACEVTHQGLSSPVTKSFNRGEC
# notes: also called 874F7-Hul; humanized antibody 874F7-Hu1
# B2: 874F7 (antibody, V domains shown)
# VH: QVQLKESGPGLVAPSHSLSITCNVSGFSLSKYGVHWIRQIPGRGLDWLGVLRAGGSTGYNSALMSRLSISKDSSKSQVFLKMNDLRTDDTAVYFCVRDHYYYSSYGGFVYWGQGTLVTVSA
# VL: DIQMTQSPASQSASLGESVTITCLASQTIGAWLAWYRQQPGKSPQLLIYAATRLADGVPSRFSGSGSGTEFSFKINNLQAEDFVSYYCQQLDSSPYTFGGGTRLEM
# notes: Murine hybridoma antibody purified on Protein G; also called murine antibody 874F7
# Legend:
# [1] = molecular target: T1, IL-33 mutant protein D65A; assay: ELISA as Example 9; row D65A against WT-3
# Experimental: (§1) SA protein was diluted to 2 μg/mL to coat ELISA plate at 100 μL/well overnight at 4° C. The plate was washed with PBST (PBS containing 0.05% Tween20) for 3 times, and blocked with 2% BSA prepared in PBS at 200 μL/well, at room temperature for 2 h. After the plate was washed twice with PBST, IL-33-his-biotin protein was diluted to 1 μg/mL with 1% BSA prepared in PBST, and was added to ELISA plate at 100 μL/well. The plate was incubated at room temperature for 1 h, and each monoclonal antibody was diluted with 1% BSA prepared in PBST in a 3-fold gradient. The highest concentration of antibody was 10 μg/mL, and the antibody was diluted for 12 gradients. Each diluted monoclonal antibody was added to ELISA wells with 100 μL/well, and the plate was incubated at room temperature for 1 h. Each sample was added to duplicate wells in parallel. The plate was washed with PBST for 3 times, and HRP-anti human IgG Fc secondary antibody prepared with PBST was diluted at an appropriate ratio, and was added to ELISA wells at 100 μL/well. […] Each reaction solution was shaken uniformly and OD450 nm was read on a microplate reader. The data was analyzed and EC₅₀ was calculated.
# (§2) Subsequently, according to the experimental method of Example 9, the affinity of the above mutant proteins to 874F7-Hu1 was determined, and IL-33 proteins (WT-1, WT-2, WT-3, and WT-4) without any mutation were set as controls.
# [2] = molecular target: T2, IL-33 mutant protein K46A; assay: ELISA as Example 9; row K46A against WT-1
# Experimental: as §1, §2
# Human IL-33-his = molecular target: T3, Human IL-33-his; assay: competition ELISA as Example 10, ST2-Fc on plate; competitor ST2-Fc
# Experimental: ST2-Fc protein was diluted to 1 μg/mL with ELISA coating solution to coat ELISA plate with 100 μL/well. The plate was placed in a wet box at 4° C. for 16 h for coating. The ELISA plate was washed 3 times with PBST, and then was blocked with 2% BSA prepared in PBS at 200 μL/well at room temperature for 2 h. The plate was washed once with PBST, and was patted dry to remove the excess blocking solution. Each monoclonal antibody was diluted with 1% BSA prepared in PBST in a 3-fold gradient. The highest concentration of antibody was 10 μg/mL, and the antibody was diluted for 11 gradients. The diluted antibody was mixed 1:1 with 10 ng/ml IL-33-his-biotin, and then the mixture was added into the ELISA well at 100 μL/well. The plate was incubated at room temperature for 1 h. Each concentration was added to duplicate wells in parallel (maximum final concentration of antibody was […], final concentration of IL-33-his-biotin was 5 ng/mL). Unbound or non-specifically bound primary antibodies were washed out. According to the instructions of the antibody, HRP labeled streptavidin secondary antibody was diluted to an appropriate concentration with antibody diluent solution, then it was added to ELISA plate with 100 μL/well, and was incubated at room temperature for 1 h. The ELISA plate was washed with PBST for 5 times, and was patted dry on absorbent paper to remove excess liquid. TMB developing solution was added with 100 μL/well for development to an appropriate degree. 2M H₂SO₄ was added with 70 μL/well to terminate development, and the absorbance was measured at 450 nm on a multifunctional microplate reader. The data were analyzed.
# The blocking effect of the above humanized antibodies on the binding of IL-33 to its receptor ST2 was determined by the ELISA method, and the relevant experimental methods were referred to Example 10.
# Pep1 = molecular target: T4, Pep1; assay: ELISA, biotinylated peptide on streptavidin plate, antibody 10 µg/mL, well 1
# Experimental: (§3) To determine the binding activity of antibody to each polypeptide fragment, the ELISA plate was pre-coated by biotin-avidin (SA) which was diluted in coating solution (50 mM carbonate coating buffer, pH 9.6) to 2 μg/ml at 4° C. overnight. The plate was washed with PBST for 3 times, and then blocked with 2% BSA prepared in PBS at room temperature for 2 h with 200 μL/well. The plate was washed once with PBST, and 864F3 and 874F7 with final concentrations of 10 μg/mL were added at 100 μL/well, respectively, and the plate was incubated at room temperature for 1 h. The plate was washed with PBST for 3 times, and the goat anti-mouse IgG labeled by HRP was added and placed at 37° C. for 30 min. After washing the plate with PBST for 3 times, the plate was patted on the absorbent paper to remove residual droplets as far as possible. 100 μl TMB developing solution was added to each well, and the plate was placed at room temperature (20±5° C.) for 5 minutes away from light; 50 μl 2M H₂SO₄ terminating solution was added to each well to terminate the substrate reaction. OD values were read at 450 nm on the microplate reader to analyze the binding ability of the antibody to each polypeptide fragment. The experimental results are shown in […]
# Pep4 = molecular target: T5, Pep4; assay: as above
# Experimental: as §3
# Pep11 = molecular target: T6, Pep11; assay: as above
# Experimental: as §3
Binder,Affinity decline ratio [1] [fold],Affinity decline ratio [2] [fold],IC50 (Human IL-33-his) [pM],OD450 (Pep1) [OD450],OD450 (Pep4) [OD450],OD450 (Pep11) [OD450]
B1,192,1,451,–,–,–
B2,–,–,–,0.074,0.05,0.056
